The source of these data is patent publication US20230104113.

This series concerns NF-kB (human). As to the kind of experiment: cell_activity. Particulars: lipid transfection of 1 pmol.

“AAAAAAAAAAGAUCUUGAAACUGUUUUAAGGUUGGCCGAUCUUAAAAAA [NF-kB aptamer circular RNA]”: the activity (A549 MTT day 2 (89% day 1), with doxorubicin 79% day 1, 73% day 2) came to 86 % viability.
For “AAAAAAAAAAGAUCUUGAAACUGUUUUAAGGUUGGCCGAUCUUAAAAAA [NF-kB aptamer linear RNA]”, the activity (5' monophosphate, A549 MTT day 2 (101% day 1), with doxorubicin 78% day 2) was 97 % viability.
